Measurements reported in patent US20200383917A1 (NORTHWESTERN UNIVERSITY, published 2020).
Ends that are not written are not given here.

Biological target: T1, CD11c on the surface of mouse bone marrow-derived dendritic cells (BMDCs) (mouse, UniProt Q9QXH4 20-1169)
T1 sequence (looked up): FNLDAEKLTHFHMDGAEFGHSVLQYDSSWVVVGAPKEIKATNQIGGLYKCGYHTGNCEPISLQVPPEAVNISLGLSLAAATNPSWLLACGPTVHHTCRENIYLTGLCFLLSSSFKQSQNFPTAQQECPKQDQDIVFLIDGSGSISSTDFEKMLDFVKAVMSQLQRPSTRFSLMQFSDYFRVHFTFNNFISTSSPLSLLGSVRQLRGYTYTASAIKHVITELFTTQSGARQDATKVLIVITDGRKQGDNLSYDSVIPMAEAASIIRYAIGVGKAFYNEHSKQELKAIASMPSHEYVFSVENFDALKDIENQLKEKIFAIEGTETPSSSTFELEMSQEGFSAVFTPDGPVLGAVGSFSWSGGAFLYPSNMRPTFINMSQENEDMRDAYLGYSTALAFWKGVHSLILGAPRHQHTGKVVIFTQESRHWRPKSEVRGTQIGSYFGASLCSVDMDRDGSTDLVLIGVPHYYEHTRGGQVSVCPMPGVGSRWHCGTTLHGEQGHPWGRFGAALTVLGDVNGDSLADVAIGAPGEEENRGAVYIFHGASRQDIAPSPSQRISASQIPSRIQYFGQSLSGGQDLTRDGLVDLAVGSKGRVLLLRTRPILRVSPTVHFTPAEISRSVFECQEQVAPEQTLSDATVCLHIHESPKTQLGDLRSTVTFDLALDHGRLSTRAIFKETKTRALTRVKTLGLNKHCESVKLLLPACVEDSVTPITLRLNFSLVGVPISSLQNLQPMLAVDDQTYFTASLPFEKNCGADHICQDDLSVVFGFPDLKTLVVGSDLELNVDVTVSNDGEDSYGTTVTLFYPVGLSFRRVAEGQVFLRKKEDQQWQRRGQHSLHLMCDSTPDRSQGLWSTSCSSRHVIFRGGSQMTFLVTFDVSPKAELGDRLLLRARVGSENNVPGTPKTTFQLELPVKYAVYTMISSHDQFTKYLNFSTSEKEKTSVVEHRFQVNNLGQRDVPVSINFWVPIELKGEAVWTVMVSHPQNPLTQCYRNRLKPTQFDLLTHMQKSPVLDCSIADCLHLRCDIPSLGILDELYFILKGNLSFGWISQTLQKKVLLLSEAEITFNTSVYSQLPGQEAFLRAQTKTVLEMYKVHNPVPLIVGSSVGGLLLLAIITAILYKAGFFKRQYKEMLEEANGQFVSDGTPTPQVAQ
Test: cell-based or functional assay

GGVTLTYQFAAGPRDK (not fully specified (N-terminus); also: displayed on PEG-bl-PPS polymersome) [P-D2-PEG5-PS (PEG-bl-PPS polymersome displaying the P-D2-PEG5-Lys-PA targeting peptide construct)]
cellular uptake by BMDCs (flow cytometry, nile red-loaded PS, 1 h incubation): > 3 fold
